Experimental findings from PMC12827327 are described below.

Test [1] has as its target actin filament (F-actin) of chicken skeletal α-actin, pointed end (chicken) (UniProt P68139). As to the kind of experiment: pyrene-actin dilution-induced pointed end depolymerization assay; apparent KD from inhibition of pointed end depolymerization; 10 µM CP-capped pyrene F-actin (20% labeled) incubated with the protein 15 min on ice, diluted to 0.5 µM; hyperbolic fit of normalized rate constants.

Test [2] has the same target. Kind of test: pyrene-actin pointed end elongation assay; apparent KD from inhibition of pointed end elongation; 0.8 µM F-actin seeds with 8 nM capping protein incubated with the titrated protein, 2 µM G-actin (8% pyrene-labeled) added; 10 mM HEPES pH 7.4, 50 mM KCl, 1 mM MgCl2, 1 mM EGTA; hyperbolic fit of normalized rates.
The target is the same in test [3].
Test [4] shares this target. This is another data set of the same source.
The target is the same in test [5]. The source holds these as a separate data set.

pKd: −log10 of the molar value.

Sequence of human SH3BGRL-3 (Q9H299 whole entry): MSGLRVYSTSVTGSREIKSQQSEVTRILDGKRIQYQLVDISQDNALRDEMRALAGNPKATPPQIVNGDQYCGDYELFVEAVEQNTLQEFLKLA
Sequence of human SH3BGRL (O75368 whole entry): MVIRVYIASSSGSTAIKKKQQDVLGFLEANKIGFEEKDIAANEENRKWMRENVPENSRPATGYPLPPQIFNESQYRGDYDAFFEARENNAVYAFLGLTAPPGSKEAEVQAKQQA
Sequence of human tropomodulin-3 (Q9NYL9 whole entry): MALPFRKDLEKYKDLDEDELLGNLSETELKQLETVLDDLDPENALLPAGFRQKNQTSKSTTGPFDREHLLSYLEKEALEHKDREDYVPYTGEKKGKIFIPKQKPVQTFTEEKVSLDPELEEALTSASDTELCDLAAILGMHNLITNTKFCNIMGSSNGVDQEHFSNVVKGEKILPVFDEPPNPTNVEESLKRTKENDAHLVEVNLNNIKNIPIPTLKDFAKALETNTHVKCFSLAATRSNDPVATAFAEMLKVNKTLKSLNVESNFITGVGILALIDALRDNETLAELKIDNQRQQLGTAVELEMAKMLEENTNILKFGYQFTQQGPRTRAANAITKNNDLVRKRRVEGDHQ

On to “human tropomodulin-3 (from UniProt Q9NYL9 1-352) (natural protein)”, for which the negative logarithm of the Kd (pKd) in test [1] was 6.89; in test [2], 6.74.

“human SH3BGRL-3 (from UniProt Q9H299 1-93) (natural protein)”: the apparent rate of filament nucleation knuc, TIRFM, 1 µM ATTO-488 α-actin, 0.5-5 µM SH3BGRL-3 (actin only: 5.1 × 10^-6) in test [3] was found to be 3.42e-05 µm^-2 s^-1. This substance yielded a pyrene-actin bulk polymerization from 2 µM α-actin (5% pyrene-labeled), increasing SH3BGRL-3: increase of the net polymerization rate in test [4] below 3 fold. For the same substance, in test [2], the pKd is 7.51. This substance registered a concentration required for half-maximal inhibition of pointed end depolymerization (K50%), CP-capped pyrene F-actin in test [5] of 7.7 µM.

As for “human SH3BGRL (from UniProt O75368 1-114) (natural protein)”, in test [3], the apparent rate of filament nucleation knuc, TIRFM, 1 µM ATTO-488 α-actin, 1-5 µM SH3BGRL (actin only: 5.1 × 10^-6) is 2.22e-05 µm^-2 s^-1. This substance also registered a pyrene-actin bulk polymerization from 2 µM α-actin (5% pyrene-labeled), increasing SH3BGRL: increase of the net polymerization rate in test [4] below 3 fold. The pKd in test [2] is 7.07. The concentration required for half-maximal inhibition of pointed end depolymerization (K50%), CP-capped pyrene F-actin in test [5] came out at 7.6 µM.
